Reference: patent publication US20060128606A1, “Fibrils” (priority 1998, published 2006)
Marks after values point to notes of the source that are not given here. Ends that are not written are not given here.

B1: muscle acylphosphatase: human muscle acylphosphatase protein, forms amyloid fibrils in 25% v/v trifluoroethanol (protein, UniProt P14621 2-99, looked up)
Acylphosphatase-2: STAQSLKSVDYEVFGRVQGVCFRMYTEDEARKIGVVGWVKNTSKGTVTGQVQGPEDKVNSMKSWLSKVGSPSSRIDRTNFSNEKTISKLEYSNFSIRY

Legend:
Assay type in all cases: physicochemical
[1] = Light microscopy of congo red stained precipitates, green birefringence (CspB peptides); design: key: (++) strongly positive; (+) weakly positive; (0) no positive evidence; details: 2.0 mg/mL peptide
Method: Yellow green birefringence indicates the presence of cross […].
(§1) Analysis by three independent techniques of samples produced by dilution of concentrated solutions of all three peptides (10.0 mg/mL diluted to 2.0 mg/mL final concentration) from 50% to either 10 or 90% acetonitrile was carried out to screen for the presence of amyloid fibrils.
(§2) Aggregated states of all three peptides produced in 10 and 90% acetonitrile were analysed using these techniques.

[2] = Solubility in aqueous buffer or acetonitrile cosolvent; details: aqueous buffer; aqueous buffers, pH 6.0 to 7.2, no cosolvent; read-out: Solubility under similar conditions (aqueous buffers)
Method: In contrast, none of the three peptides are soluble under similar conditions to any significant extent; CspB-2, for example, dissolves only to ˜0.2 mg/mL. To solubilize the peptides, acetonitrile was used as a cosolvent at pH 4.0 (formic acid, unbuffered). […] A standardized set of combinations of peptide concentration and solvent composition was used, involving peptide concentrations of 0.4, 2 and 10 mg/mL, and acetonitrile concentrations of 10, 50 and 90%.

[3] = β-sheet content from CD ellipticity at 215 nm; details: 0.4 mg/mL
Method: CD spectra were recorded on a Jasco J720 spectropolarimeter using quartz cuvettes of 1 mm pathlength, at 1 nm intervals from 195 to 250 nm. Routinely, CD samples were examined 30 min after dilution from the peptide stock solution containing 50% acetonitrile.
Calculation of the β-sheet content was carried out using the ellipticity at 215 nm normalized to a per residue basis (units: deg cm^2/dmol).

[4] = Congo red binding assay of amyloid fibril formation (CspB peptides); design: key: (++) strongly positive; (+) weakly positive; (0) no positive evidence
Method: For the congo red binding assay of fibril formation, absorption spectra of a 10 μM solution of the dye in the assay buffer (5 mM phosphate pH 7.41 […]) before and after addition of the peptide solution were recorded on a Perkin Elmer (Foster City, Calif.) Lambda 16 spectrometer in the range of 400 to 700 nm.
Analysis by three independent techniques of samples produced by dilution of concentrated solutions of all three peptides ([…]) from 50% to either 10 or 90% acetonitrile was carried out to screen for the presence of amyloid fibrils.
as §2

[5] = Transmission electron microscopy screen for amyloid fibrils (CspB peptides); design: key: (++) strongly positive; (+) weakly positive; (0) no positive evidence; details: 2.0 mg/mL peptide
Method: Fibril formation and morphology were examined by transmission electron microscopy (EM). Peptide samples were dried onto formvar-and carbon-coated grids and negatively stained with 1% phosphotungstic acid (PTA). Grids were examined in a JEOL JEM-1010 electron microscope at 80 kV excitation voltage.
as §1, §2

[6] = Hydrodynamic radii by NMR diffusion measurements (pulse field gradient); details: 10 mg/mL peptide in 50% acetonitrile
Method: All NMR spectra were acquired at ^1H frequencies of 500 or 600 MHz on homebuilt NMR spectrometers at the Oxford Centre for Molecular Sciences. One dimensional (1D) spectra typically contain 8K complex data points. Two dimensional (2D) experiments were acquired with 2K complex data points in the t2 dimension, and in phase-sensitive mode using time proportional phase incrementation (TPPI) for quadrature detection in t1. Diffusion constants were determined using pulse field gradient experiments with 8K complex points. Spectral widths of 8,000 Hz were used for all experiments. […] The water signal was suppressed either by using presaturation during the 1.2 s relaxation delay or by using a gradient double echo. […] Data were processed using Felix 2.3 (BIOSYM) on Sun workstations. Typically, the data were zero filled once, and processed with a double exponential window function for the 1D, and a sinebell squared function, shifted over 90° for each dimension of the 2D spectra. All spectra were referenced to an internal standard of dioxan at 3,743 ppm.

[7] = 1D NMR estimate of percentage of peptide visible in solution; details: 10 mg/mL in 50% acetonitrile
Method: A series of 1D spectra was used to estimate the percentage of peptide visible by solution NMR. These 1D spectra were all acquired with a gain of 7,000 and 256 scans on the same 500 MHz NMR spectrometer, in consecutive experiments. The concentration of a tryptophan solution was calculated from its absorbance at 280 nm. The integration of the indole resonances in these ID spectra from the tryptophan and peptide solutions was used to estimate the concentration of the peptide solutions.
Any small oligomers (whose signals merge with the monomer signal if conformational interconversion takes place on a time scale shorter than that resolvable by this method, i.e. less than ˜100 ms) can only exist as minor populations. […] The remainder must therefore be in large soluble aggregates whose overall tumbling times are too large to give resolvable NMR […].

[8] = Thioflavin T assay of muscle acylphosphatase aggregate; details: aggregate after two weeks in 25% v/v TFE, pH 5.5, 25° C.
Method: (§3) Muscle acylphosphatase was purified as previously reported (A. Modesti et al. (1995) Protein Express Purif. 6, 799) and incubated at a concentration of 0.375 mg/ml (34 μM) in 25% v/v trifluoroethanol (TFE), acetate buffer, pH 5.5 at 25° C. under constant stirring. Aliquots were withdrawn at regular time intervals for electron microscopy and spectroscopic analysis. Circular dichroism spectra were acquired directly by means of a Jasco J-720 spectropolarimeter and cuvettes of 1 mm path length. Electron micrographs were acquired by a JEM 1010 transmission electron microscope at 80 kV excitation voltage. A 3 μL sample of protein solution was placed and dried for five minutes on a Formvar and carbon-coated grid. The sample was then stained with 3 μL 1% phosphotungstic acid solution and observed at magnifications of 25-100k.
(§4) Thioflavin T and Congo Red assays were performed according to Le Vine III (H. Le Vine III (1995) Amyloid: Int. J. Exp. Clin. Invest. 2,1.) and Klunk (W. E. Klunk et al. (1989) J. Histochem. Cytochem. 37, 1293), respectively. For Congo Red birefringence experiments aliquots of protein were air dried onto glass slides. The resulting films were stained with a saturated solution of Congo red and sodium chloride, corrected to pH 10.0 with 1% sodium hydroxide. The stained slides were examined by an optical microscope between crossed polarizers.

[9] = Congo Red absorption and birefringence of muscle acylphosphatase aggregate
Method: as §3, §4

[10] = 10% acetonitrile, first experiment
[11] = 90% acetonitrile, first experiment
[12] = 90% acetonitrile, second experiment
[13] = 10% acetonitrile, first experiment, 1.6 mg/mL peptide
[14] = 10% acetonitrile, second experiment, 2.0 mg/mL peptide
[15] = 90% acetonitrile, first experiment, 1.6 mg/mL peptide
[16] = 90% acetonitrile, second experiment, 2.0 mg/mL peptide

Molecule | Amyloid fibril formation, LM green birefringence [1, 10] | Amyloid fibril formation, LM green birefringence [1, 11] | Amyloid fibril formation, LM green birefringence [1, 12] | solubility [2] [µg/mL] | β-sheet content (CD) ([3]; 2.5% acetonitrile) [%] | β-sheet content (CD) ([3]; 15 to 70% acetonitrile) [%] | β-sheet content (CD) ([3]; 97.5% acetonitrile) [%] | Amyloid fibril formation, Congo Red [4, 13] | Amyloid fibril formation, Congo Red [4, 14] | Amyloid fibril formation, Congo Red [4, 15] | Amyloid fibril formation, Congo Red [4, 16] | Amyloid fibril formation, EM ([5]; 10% acetonitrile) | Amyloid fibril formation, EM ([5]; 90% acetonitrile) | Hydrodynamic Stokes radius [6] | Amyloid fibril formation, LM green birefringence ([1]; 10% acetonitrile, second experiment) | Total peptide concentration detectable in the NMR spectra [7] [%] | β structure content (CD) ([3]; 90% acetonitrile) [%] | Increase of the 482 nm fluorescence (excitation 440 nm) of Thioflavin T [8] | Congo Red birefringence under cross-polarised light ([9]; fibrils after two weeks of incubation) | Congo Red difference spectrum, maximum intensity ([9]; spectrum of aggregate plus dye minus aggregate alone and dye alone) [nm]
MLEGKVKWFNSEKGFGFIEVEGQDDVFVHFSAIQG [CspB-2] | + | ++ | 0 | ~200 | 100 | ~20 | 71.5 | ++ | 0 | 0 | ++ | ++ | ++ | 1.68 nm | – | – | – | – | – | –
CspB-1: peptide, residues 1-22 of B. subtilis cold shock protein CspB, corresponding to the first two β-strands (MLEGKVKWFNSEKGFGFIEVEG; UniProt P32081 1-22, looked up, fragment) | ++, ++ | ++, ++ | ++, ++ | – | – | – | – | ++, ++ | ++, ++ | ++ | 0 | ++ | 0 | 1.60^a nm | ++, ++ | ~20 | ~70 | – | – | –
B1 | – | – | – | – | – | – | – | – | – | – | – | – | – | – | – | – | – | three fold increase | characteristic green birefringence | 540
